Source: patent US20220281949A1

Columns and labels:
DR1-restricted TCR HA1.7 [1] = assay: flow cytometry: HA1.7-transduced primary CD4+ T cells stained with PE wild-type DR1 dextramer and anti-CD4
DR1-restricted TCR HA1.7 [2] = assay: flow cytometry: TCR-transduced primary human T cells stained with PE class II dimer and anti-CD4

| Substance | percent of cells in the dextramer+ CD4+ quadrant (DR1-restricted TCR HA1.7 [1]) | percent of cells in the dimer+ CD4+ quadrant (DR1-restricted TCR HA1.7 [2]) |
| --- | --- | --- |
| CLIP, DR1 dextramer (peptide-MHC) | 0.1% | – |
| Control (DR1 L114W/V143M+2reps dimer) (peptide-MHC) | – | 0.1% |
